The DeepSol protein solubility set

Assay: soluble on expression in E. coli; label from the status in PepcDB or PDB records

Soluble on expression in E. coli, not soluble:
MGSDKIHHHHHHMASSIQGQENVMSQSEFDSALPNGIGLAPYLRMKQEGMTENESRIVEWLLKPGNLSCAPAIKDVAEALAVSEAMIVKVSKLLGFSGFRNLRSALEDYFSQSEQVLPSELAFDEAPQDVVNKVFNITLRTIMEGQSIVNVDEIHRAARFFYQARQRDLYGAGGSNAICADVQHKFLRIGVRCQAYPDAHIMMMSASLLQEGDVVLVVTHSGRTSDVKAAVELAKKNGAKIICITHSYHSPIAKLADYIICSPAPETPLLGRNASARILQLTLLDAFFVSVAQLNIEQANINMQKTGAIVDFFSPGALK
MGSDKIHHHHHHMASSTSIDFKGNVTGALADRQLRANFRSALDGLRAKRLNVFSDAEELDRMRVQGEANKRRALAQLPALLEQLEHRCTANGIIVHWAETTDEANRIVLDIMRSHDATTLVKGKSMVSEEMHLNAYLERHGIEALETDLGEFIIQLNHEPPSHIIVPAVHKNRQQVARIFHEKLGEPYVDEVEKLNAIARRTLREKFRTAQVGLSGVNFAIAETGTLLLVENEGNGRMCTTVPPVHIALMGLEKVVERLEDVPPLLRLLTGSATGQLVTTYVNCITSPRKPGEKDGPREVHLVILDNGRSRMLADPQLSRTLQCIRCGTCLNHCPVYVRIGGHAYDSVYPGPIGKILTPQIDGLARKGVLATASSLCNACEEVCPVRIPIPALLRRLRRESYAPPGEGVVKGAGSKRTLFEKAVWKGWEMVYSHPALYSFVLKVLGRFGHRLPKVGPLKAWTSVRTAPRFASTSLHELTRQEGIRHE
MGSDKIHHHHHHMATETRVASLPSIDAAALAAIEGCALVDLLLPDTNGVLRGKRVTREALDKVYRDGVCLPMSLIATDITGNTVEETGLGYAIGDADRICRPIAGSLRPVPWAPQPMAQLLLAMHTPNGALFEVAPRAVLQRVVQGFAALGLTPVIAVELEFYLFDAMADAQGRPQTPRDAHTGERNTSTQVYALQDLDDHRSFTDAVTAACRQQGIPADTAVAEYAPGQFEINLQHRADAVAACDEALLLKRTIKAIAQQQHLLASFMAKPFAGQAGSGLHVHVSLLDAAGHNVLHGTADAPAAALRHAIAGLQRHADASLLLFAPHANSYRRFVPNAFVPLDASWGFNNRTVALRIPHSDAHNTRIEHRIAGADANPYLVAAAVLAAMLDGLQHPGDPTAPVQGNAYAQATFTPRTWQGAVDAFLRSDFIATQLGTQFQHVFGQQKQRELLDYQALVPDLDYARYLRTV
MGSDKIHHHHHHMATLLTLLLLFATPIAIRAEEFVWPEPSNAIERKFEKAALTSDNAACSKIGGEILRKGGNSIDASIASMFCLGVVNPQSSGIGGGFLMTYFDQKSGDCYSIDARETAPAAASRDMFLNDSDGSKYGFKAAGTPGEIAGYWHIFKKFGSGKVTWKELVQPSVKLAREGHPVSPYLATVMKVKERHFRLFPSVKASSIKLSMFYRHWINPETNDTYQSGDLLKRPKLAKTLERLGNSPNPVQLFYHGEMAKTLAKEFQEGGGLITEQDLANYKVREYVNSNSNDHFRGTLTMCGGPPPSSFGVTQLIVSAMSKLFPEGHKDDIYNDPKVLHKYIEAMKFAYAQRTLLGDHDFVKGALELSKNLTTPEYTQWVIDRMTDKAQSSKNYGGIAQYVPPDHGTSHVSAMDQYGNGVSATTTINRWFGAAVESSEYGILWNDEMDDFSTPGMENGFGFAPSETNFIEPGKRPMSSMSPMVIFDHVTKKVRMVIGGSGGSKIISALAKSIVRSLIFHDSIKKAIDAPMIHNQFTPDITQLDDEFPINMKNILESEYLQKFRNTTGFEGIIQGVNVLNDGIYACGDYRRKTDQEPSGF
MGSDKIHHHHHHMATQRGTTAPPQTGSEQTGSVAGAGNARASLGVDGAVRLATSSVTTQSYAREFARLFNVDTAHTLTTTSLKTAQLTATHMCSSVHGLGKSTPLPTEDAYILSLQLQHSGGAELWKRGRRVPTEPYAPGSIMLGHLSDEPVANLPDPFECILFHIPRPAFDELCGLSALPPVGELDDVNRTIDPVLHHLGLALVPAMADPQLAGSLFFDHVAHAMYERLATTYGRFRGTLPPRGRVLSKTQERIAKELLVADLLVEPPLSDIALACGLSVRQFVDAFRSTTGMPPFRWLRAYRIERAKELLRRTSFSLAEIGAACGFADQSHFTRTFSAATGTTPGDWRRACGA
MGSDKIHHHHHHMATQTDSEAALRIASGRKAFVEPLRLGERLKEIRLSNRWTLEDVSQRTGLARSTLSKIENDQISPTFSAVQKLIGGLGIDLPQLLTPPKPQSRTLGRRDLTRVGEGKQHPTPTYEHELLSWQLAQKRMIPFKTIVRARDFNEFSEWVRHDGEEFLMVLDGDIWLYTEFYEPLHLAQGDSIYFDSDMGHALISVSETDAVVLSVCTRGENA
